The source of these data is the Immune Epitope Database (IEDB).

One experiment addresses HLA-B*08:01. Put plainly: IEDB peptide-MHC binding, purified MHC/competitive/radioactivity; filed as Kd, often an IC50 or EC50 that approximates it; ≥ and ≤ were set here for values at or beyond the usual limits of such assays.
The target of experiment [1] is HLA-A*02:01. The experiment can be described thus: IEDB peptide-MHC binding, purified MHC/direct/fluorescence; filed as Kd, often an IC50 or EC50 that approximates it; ≥ and ≤ were set here for values at or beyond the usual limits of such assays.
In a further experiment the target is HLA-A*69:01. Described as above.
Another experiment has as its target HLA-A*26:01. The experiment can be described thus: IEDB peptide-MHC binding, purified MHC/competitive/radioactivity; filed as Kd, often an IC50 or EC50 that approximates it; ≥ and ≤ were set here for values at or beyond the usual limits of such assays.
A further experiment addresses HLA-A*03:01. Put plainly: IEDB peptide-MHC binding, purified MHC/direct/fluorescence; filed as Kd, often an IC50 or EC50 that approximates it; ≥ and ≤ were set here for values at or beyond the usual limits of such assays. The conditions noted are these: source organism: Influenza A virus (A/tiger/Thailand/CU-T4/04(H5N1)).
The target of the next experiment is HLA-A*11:01. The experiment is described as above. The conditions noted are these: source organism: Influenza A virus (A/tiger/Thailand/CU-T4/04(H5N1)).
The target in another experiment is HLA-A*23:01. Put plainly: IEDB peptide-MHC binding, purified MHC/competitive/radioactivity; filed as Kd, often an IC50 or EC50 that approximates it; ≥ and ≤ were set here for values at or beyond the usual limits of such assays.
The next experiment has as its target HLA-A*24:02. The description is as above.
In experiment [2] the target is HLA-A*02:01. The experiment can be described thus: IEDB peptide-MHC binding, purified MHC/competitive/fluorescence; ≥ and ≤ were set here for values at or beyond the usual limits of such assays.
In experiment [3] the target is HLA-A*01:01. The experiment can be described thus: IEDB peptide-MHC binding, purified MHC/competitive/radioactivity; filed as Kd, often an IC50 or EC50 that approximates it; ≥ and ≤ were set here for values at or beyond the usual limits of such assays.
For a further experiment, the target named is HLA-A*30:01. The experiment is described as above.
Experiment [4] addresses HLA-A*01:01. Put plainly: IEDB peptide-MHC binding, purified MHC/direct/fluorescence; filed as Kd, often an IC50 or EC50 that approximates it; ≥ and ≤ were set here for values at or beyond the usual limits of such assays. The conditions noted are these: source organism: Treponema pallidum.
The next experiment has as its target HLA-A*30:02. Put plainly: IEDB peptide-MHC binding, purified MHC/competitive/radioactivity; filed as Kd, often an IC50 or EC50 that approximates it; ≥ and ≤ were set here for values at or beyond the usual limits of such assays. The settings on record: source organism: Dengue virus 1 Brazil/97-11/1997.
[5] abbreviates: source organism: Vaccinia virus WR.
[6] abbreviates: source organism: Salmonella enterica.
The mark [7] stands for this setting: source organism: Dengue virus 2 Jamaica/1409/1983.
Where [8] appears, read: source organism: Dengue virus 3 Martinique/1243/1999.
[9] abbreviates: source organism: Dengue virus 4 Philippines/H241/1956.
Where [10] appears, read: source organism: Zaire ebolavirus.
Setting [11] is: source organism: Vibrio alginolyticus 12G01.
Setting [12] is: source organism: Dengue virus 1 Brazil/97-11/1997.
Setting [13] is: source organism: Camelpox virus M-96.
Where [14] appears, read: source organism: Treponema pallidum.
[15] abbreviates: source organism: Sudan ebolavirus.

As usually defined, the Kd is a measure of binding affinity in units of concentration. With SVKINFEFV, the Kd with HLA-B*08:01 (setting [5]) was determined as 105 nM.

Turning to AIDPRRIVA, the Kd in the experiment with HLA-A*02:01 [1] (setting [6]) and in the experiment with HLA-A*69:01 (setting [6]) was at least 20000 nM each time. For the sequence EWITDFVGKT, in the experiment with HLA-A*26:01 (source organism: Dengue virus 3 Singapore/8120/1995), the Kd was at least 28200 nM. Take DVKKDLISY: the Kd in the experiment with HLA-A*26:01 (setting [7]) is 369 nM.

For the sequence ETLLLLGLM, the Kd with HLA-A*26:01 (setting [8]) was determined as 133 nM. On to NSPVFNYNK, for which the values for the Kd in the experiment with HLA-A*03:01 and in the experiment with HLA-A*11:01 were at least 20000 nM and 116 nM, respectively. Consider NYKERMVTF, for which the values for the Kd in the experiment with HLA-A*23:01 (setting [9]) and with HLA-A*24:02 (setting [9]) were 101 nM and 19.4 nM, respectively.

One may read the IC50 as the midpoint of a concentration-inhibition curve. The low end stands for higher potency, the high end for lower potency. The sequence DLVLFDLDE came in with an IC50 in the experiment with HLA-A*02:01 [2] (setting [10]) of at least 425000 nM.

On to VVRGIDGGV, for which the Kd in the experiment with HLA-A*02:01 [1] (setting [11]) and in the experiment with HLA-A*69:01 (setting [11]) was at least 20000 nM in each case.

LARTAKVKN: the IC50 with HLA-A*02:01 [2] (setting [10]) was at least 213000 nM. Regarding VYPMSIPATL, the results for the Kd with HLA-A*23:01 (setting [12]) and with HLA-A*24:02 (setting [12]) were 6.39 nM and 78.1 nM, respectively. Take TWKLARASF: the values for the Kd with HLA-A*23:01 (setting [12]) and in the experiment with HLA-A*24:02 (setting [12]) were 218 nM and 224 nM, respectively.

In the case of MWKQITNEL, in the experiment with HLA-A*23:01 (setting [9]), the Kd came out at 144 nM. Turning to LLSKNTFYL, the Kd with HLA-A*02:01 [1] (setting [13]) amounted to 15.5 nM; with HLA-A*69:01 (setting [13]) it was 536 nM. As to SLNTKFKTL, the Kd with HLA-B*08:01 (setting [5]) was 8.68 nM. On to WMDLLRALI, for which the Kd with HLA-A*01:01 [3] (setting [9]) is 9950 nM. On to RYLRDQQLL, for which, in the experiment with HLA-A*24:02 (source organism: HIV-1 M:B_ARV2/SF2), the Kd came to 30 nM. For AYQHALNEL, the Kd turned out to be 2340 nM with HLA-A*23:01 (setting [9]) and 199 nM with HLA-A*24:02 (setting [9]). For the sequence SISIKLTDS, in the experiment with HLA-A*02:01 [2] (source organism: Vaccinia virus Copenhagen), the IC50 was at least 107000 nM. As for RARVSQGAG, the Kd with HLA-A*30:01 (setting [12]) came out at 194 nM. With RARFIGGYI, the Kd with HLA-A*30:01 (setting [5]) amounted to 0.263 nM. With MDLEKRHVL, in the experiment with HLA-B*08:01 (setting [7]), the Kd is 68 nM.

Regarding SITEAELTGY, in the experiment with HLA-A*01:01 [3] (setting [7]), the Kd amounted to 391 nM. IVDYVTAYG: the Kd came out at 2520 nM in the experiment with HLA-A*01:01 [4], 17300 nM in the experiment with HLA-A*02:01 [1] (setting [14]) and 1630 nM with HLA-A*69:01 (setting [14]).

With SMFMSLLPA, in the experiment with HLA-B*08:01 (setting [5]), the dissociation constant (Kd) amounted to 55.5 nM. ASVKKDLISY: the Kd in the experiment with HLA-A*01:01 [3] (setting [12]) was at least 37800 nM; with HLA-A*30:02, 19.4 nM. Regarding RTYSSSIIA, the Kd with HLA-A*30:01 (setting [5]) is 49.8 nM.

For SGALWDVPSP, the Kd with HLA-A*30:01 (setting [9]) came to 11000 nM. On to LAEAIFKLTY, for which the Kd in the experiment with HLA-A*01:01 [3] (setting [7]) is 1510 nM.

In turn, GVFEGIAVL showed a Kd with HLA-A*02:01 [1] (source organism: Mycobacterium tuberculosis variant bovis) of 15.5 nM. TAQEQHNAA: the IC50 in the experiment with HLA-A*02:01 [2] (setting [15]) came to 27500 nM. RYLEFEALGF: the results for the Kd with HLA-A*23:01 (setting [8]) and with HLA-A*24:02 (setting [8]) were 4.68 nM and 38.1 nM, respectively. On to KTSSGRMPV, for which, in the experiment with HLA-A*30:01 (setting [5]), the Kd amounted to 1.96 nM. As for TFKMRPMFA, the Kd in the experiment with HLA-A*30:01 (setting [12]) was found to be 23.1 nM. KRTSFFLWV gave an IC50 with HLA-A*02:01 [2] (setting [10]) of at least 79600 nM.

Sequence NQNALVCGL yielded an IC50 with HLA-A*02:01 [2] (setting [15]) of at least 122000 nM. Turning to ELEPPFGDSY, the Kd in the experiment with HLA-A*01:01 [3] (setting [9]) was found to be 117 nM; with HLA-A*26:01 (setting [9]), 1320 nM.

Regarding LLPPELSET, the IC50 with HLA-A*02:01 [2] (source organism: Human alphaherpesvirus 1 strain 17) amounted to 4890 nM.

As to KTTFSLHYA, the Kd with HLA-A*30:01 (source organism: Dengue virus 1 Singapore/S275/1990) stood at 14.5 nM. As to FIRLKLTKL, in the experiment with HLA-B*08:01 (setting [5]), the Kd worked out at 135 nM.

As for HLKHHKQCV, the Kd with HLA-B*08:01 (setting [5]) stood at 4.51 nM. In the case of GTVLVQVKY, the Kd came out at 1240 nM with HLA-A*01:01 [3] (setting [12]) and 5110 nM with HLA-A*30:02. In the case of MFLITENKI, the Kd with HLA-A*23:01 (source organism: Dengue virus 1 Nauru/West Pac/1974) was found to be 162 nM. VLVHPQWVL: the IC50 with HLA-A*02:01 [2] (source organism: Homo sapiens) came to 2080 nM.

For VDRKGKVVGL, the Kd with HLA-B*08:01 (setting [7]) turned out to be 6320 nM.

Take YKKLKFRFI: the equilibrium dissociation constant (Kd) with HLA-B*08:01 (setting [5]) came out at 196 nM. For the sequence KIRPTRSVY, the Kd with HLA-A*30:01 (setting [5]) worked out at 7.24 nM. For the sequence SPKRLATAI, in the experiment with HLA-B*08:01 (setting [8]), the Kd amounted to 14.1 nM. As to MQKCYFSYK, the dissociation constant Kd with HLA-A*30:01 (setting [5]) came out at 0.527 nM.

In the case of EVDSFSLGI, in the experiment with HLA-A*01:01 [3] (setting [12]), the Kd stood at 7390 nM.

As to GIQRTVFFVL, the Kd in the experiment with HLA-B*08:01 (setting [9]) amounted to 6610 nM. In the case of SAKYINSSI, the Kd with HLA-B*08:01 (setting [5]) was found to be 137 nM.

Take KTHTLWSNG: in the experiment with HLA-A*30:01 (setting [9]), the Kd came out at 81.4 nM.
